The data set is described as follows: yeast display, Sf9 membrane polyspecificity reagent, FACS + sequencing; frameworks hold sequencing errors. In short, it runs like this: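 Galactose-induced (36–48 hours) yeast carrying a synthetic nanobody display library were exposed to 10% biotinylated, detergent-solubilized Sf9 membrane reagent at 4 °C for 1 hour. FACS followed streptavidin microbead enrichment, using low and high (top ~1%) gates for expression (anti-HA) and reagent binding (streptavidin). Colony PCR, MiSeq 2 × 250 sequencing and CDR-length filtering followed. Labels for polyreactivity reflect the gate of origin.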
Turning to “QVQLVESGGGLVQAGGSLRLSCAASGTFDTYSMGWNRQAPGKERELVADISSVGSTYYADSVKWRFTISRDNAKNTVYLQMNSLKPEDTAVYYCAATYPYPYYYIEYYYWGQGTQVTVSS”, the “polyreactivity (PSR sort gate)” value is “low polyreactivity”. Then “QFQLVESCGGLVPAGGSLRLSCAASGRILSDYAMGWYRQAPGKERELVAVISWDGTNTYYADSVKGRFPISRDNAKNTVYLQMNSLKPEDTAVYYCAATGTSYYSAYDYWGQGTQVTVSS”, with “low polyreactivity”; and “QVQLVESGGGLVQAGGSLRLSCAASGIIFHYYAMGWYRQAPVKERELVAVITSGGSTNYADSVKGRFTISRDNAKNTVYLQMNSLKPEDTAVYYCAADPIRDSWWQYFQDGREYDYWGQGTQVTVSS”, with “low polyreactivity”. Then “QVQLVESGGGLVQAGGSLLLSCAASGSIFFPNAMGWYRQAPGKERELVAAINWSGDSTYYADSVKGRFTISRDNAKNTVYLQMNSLKPVDTAVYSCNATYPWFDYDYWGQGTQVTVSS”, with “low polyreactivity”; and “QVQLVESGGGLVQAGGSLRLSCAASGSIFQWYAMGWYRQAPGKERELVAAISWDGDSTYYADSVKGRFTISRDNAKNTVYLQMNSMNPEDTAVYYCAADYEWEYEYWGQGTQVTVSS”, with “high polyreactivity”; and “QVQLVESGGGLVQAGGSLRLSCAASGNTFLYYGMGWYRQAPGKERELVAAITSGGITYYADSVKGRFTISRDNAKNTVYLQMNSLKPEETAVYFCNKDVGFTRPLYYWGQGTQVTVSS”, with “low polyreactivity”. As for “QVQLVESGGGLVQAGGSLRLSCAASGRTFYGYAMGWYRQAPGKERELVAAITRSGGSTYYADSVKGRFTISRDNAKNTVYLQMNSLKPEDTAVYYCAAGGQARHDNWGQGTQVTVSS”, the “polyreactivity (PSR sort gate)” value is reported as “low polyreactivity”. With “QVQLVESGGGLVQAGGSLRLSCAASGSTFDDNAMGWYRQAPGKDRELVAGISTNGGSTSYADSVKGRFTISRDNAKNTVYLPMNSLKPEDTAVYYCAKGLYVQFDYWGQGTQVTVSS”, the “polyreactivity (PSR sort gate)” value is reported as “low polyreactivity”. As for “QVQLVESGGGLVQAGGSLRLSCAASGSTFTSNAMGWYRQAPGKERELVASISGSGGRTYYADSVKGRFTISRDNAKNTVYLQMNSLKPEDTAVYYCNAESRNLYSTQFDYLGQGTQVTVSS”, the entry is “low polyreactivity”. For the sequence “QVQLVESGGGLVQAGGSLRLSCAASGLTFGWYAMGWYRQAPRKERELVAAISWSGSTTYYADSVKGRFTISRDNAKNTVYLQMNSLKPEDTAVYYCAADVSTRPYGYYYWGQGTQVTVSS”, the “polyreactivity (PSR sort gate)” value was “high polyreactivity”.

As for “QVQLVESGGGLVQAGGSLRLSCAASGSIFGLYAMGCYRQAPGKERELVAAITWSSGNTYYADSVKGRFTISRDNAKNTVYLQMNSLKPEDTAVYYCAAEQIYFVYWEDDYWGQGTQVTVSS”, the “polyreactivity (PSR sort gate)” value is listed as “high polyreactivity”. Then “QVQLQESRGGLVQAGGSLRLGFAASGNISDAGNKGWYRQAPGKEREFVAAIAAGSNTNYADSVKGRFTISRDNAKNTVYLQMNSLKPEDTAVFYCAVAYYARLQYEYWGQGTQVTVKS”, with “low polyreactivity”; and “QVQLVESGGGLVQAGGSLRLSCAASGRTFQRYALGWYRQAPGKERELVAAITSRGGSTYYADSVKGRFTISRDNAKNTDYLQMNSLIPEETAVYYCSARSRRTHSEPQSEMDYWGQGTQVTVSS”, with “high polyreactivity”; and “QVQLVESGGGLVQAGGSLRLSCAASGRIFAYYAMGWYRQAPGKERELVAAISRSGGSTYYADSVKGRFTISRDNAKNTVYLLMNSLKPEDTAVYYCNVVRVRYYWWEFDYWGQGTQVTVSS”, with “high polyreactivity”.

As to “QVQLVESGGGLVQAGGSLRLSCAASGRTLAFYAMGWYRQAPGKERELVAAITRGGGTYYADSVKGRFTISRDNAKNTVDLQMNSLIPEDTAVYYCNADSGFRWGAFDYWGQGTQLTVSS”, the “polyreactivity (PSR sort gate)” value is listed as “low polyreactivity”. As for “QVQLVESGGGLVQAGGSLRLSCAASGSIFLDYAMGWYRQAPGKERELVATITSGSSTYADSVKGRFTISRDNAKNTVYLQMNSLKPEDTAVYYCNVKLIVRYWNPSPYDYWGQGTQVTVSS”, the “polyreactivity (PSR sort gate)” value is given as “low polyreactivity”. In the case of “QVQLVESGGGLVQAGGSLRLSSAASGRTLARNAMGWYRQAPGKERELVAGITSGGSTDYADSVKGRFTISRDNAKNTVYLQMNSLKPEDTAVYYCNRDAGPGGDYWGQGTQGTVSS”, the “polyreactivity (PSR sort gate)” value is “low polyreactivity”. Then “QVQLVESGGGLVQAGGSLRLSCAASGSLFGVNAMGWYRQAPGKERELVASISLSDDRTYYADSVKGRFTISRDIAKNTDYLQMNSLKPEDTAVYYCARRLLWYWDVDPSLAEYDYWGQGTQVTVSS”, with “low polyreactivity”. As to “QVQLVESGGGLVQSGGSLRLICAASGRTSLNYAMGWYRQAPGKEMELVAAITRGGGGTYYADSVKGRFTISRDNAKNTVYFQMNSLKPEDTAVYYCAREHKRGGYGYWGQGTQVTVSS”, the “polyreactivity (PSR sort gate)” value is recorded as “high polyreactivity”. As for “QVQLVESGGGLVQAGGSLRLSCAASGFTFYPNAMGWYRQAPGKERELVAAISRSGSSTYYADSVKGRFTISRDNAKNTVYLQMNSLKPEDTAVYYCNRYGRQYDFYYWGQGTQVTVSS”, the entry is “high polyreactivity”. Then “QVQLVESGGGLVQAGGSLRLSCAASGFTFYRYAMGWYRQAPGKERELVAAISSSGGTTYYADSVKGRFTISRDNAKNTVYLQMNSLKPEDTAVYYCAARGWPTWGWGYDYWGQGTQVTVSS”, with “high polyreactivity”. For “QVQLVESGGGLVQAGGSLRLSCAASGFTFYYYTMGWYRQAPGKERELVAGITSRGGSTTYADSVKGRFTISRDNAKNTVYLQMNSLKPEDTAVYYCNARWAVHSGYDYWGQGTLVTVSS”, the “polyreactivity (PSR sort gate)” value is recorded as “high polyreactivity”.

Consider “QVLLVESGGGLVQAGGSLRLSCAASGFIFVDYAMGWYRQAHGKERELVAAITSSGDRTYYADSVKGRFTISRDNAKNTVYLQMNSLKPEDTAVYYCNADWSTACYTSYDYWGQGTQVTVSS”, for which the “polyreactivity (PSR sort gate)” value is “low polyreactivity”. As for “QVQLVESGGGLVQAGGSLRLSCAASGSIFHWNAKGWYRQAPGKERELVAGITTSGGTTYYADSVKGRFTISRDNAKNTVYLQMNSLKPEDTAVYYCAARIIRWRPRWPSYGKYDYWGQGTQVTVSS”, the entry is “low polyreactivity”.

Turning to “QVQLVESGGGLVQAGGSLRLSCAASGSIFRGNGMGWYRQAPGKERELVAAISRSGGRTYYADSVKGRFTISRDNAKNTVYLQMNSLKPEDTAVYYCNAARTYQYDYWGQGTQVTVSS”, the “polyreactivity (PSR sort gate)” value is on record as “high polyreactivity”. Then “QVHLVESGGGLVQAGGSLRLSCAASGSTFYNNAMGLYRQAPGKERELVASISLSAGSTYYADSVKGRFTISRDNAKNTVYLQMNSMKPEDTAVYYCAAESVAILVLVYPKGYGYWGQGTQVTVSS”, with “low polyreactivity”; and “QVQLVESGGGLVQAGGSLRLSCAASGSTFAKYAMGWSRQAPGKEREFVAAITASGGRTFYADSVKGRFTISRDNAKNTVYLQMNSLKPEDSAVYYCAADVVPTWYGYNYDYWGQGTQVTVSS”, with “high polyreactivity”. Consider “QVQLVESGGGLVQAGGSLRLSCAASGLTSYDYGMGWYRQAPGKERELVAAITWSGGSTYYADSVKGRFTISRDNAKNTVYLEMHSLKPEDTAVYYCAAESWGYGWYGYWGQGNQVTVSS”, for which the “polyreactivity (PSR sort gate)” value was “low polyreactivity”. Regarding “QVQLVESGGGLVQAGGSLRLSCAASGRTFIGYAMGWYRQAPGKERELVAAISRGGSTKYADSVKGRFTISRDNAKNTVYLQMNSLKPEDTAVYYCAVGWSYYAGLRHRYYSGFDYWGQGTQVTLSS”, the “polyreactivity (PSR sort gate)” value was “low polyreactivity”. Regarding “QVQLVESGGGLVQAGGSLRLSCAATGITFYPNGMGWYRPAPGKEREFVAAITSSGGSTYYADSVKGRFTISRDNAKNSVYLQMNSLKPEDTAVYYCAAQYYPISYYGYGYWGQGTQVTVSS”, the “polyreactivity (PSR sort gate)” value is “low polyreactivity”.

Regarding “QVQLVESGGGLVQAGGSLRLSCAASGRIFNIYAMGWYRQAPGKERELVAAIRWNGGSTYYADSVKGRFTISRDNAKNTVYLQMNSLKPEDTAVYYCAARHPLYRVQHEYWGQGTQVTVSS”, the “polyreactivity (PSR sort gate)” value was “low polyreactivity”. As for “QVQLVESGGGLVQAGGILRLSCAASGSIFQTNAMGWYRPAPGKERELVAAISQRGGRTYYADSVKGRFTISRDYAKNTVYLHLKSLKPEDTAVYYGAATQSQRVHAARYGYWGQGSQVTVSS”, the entry is “high polyreactivity”; as for “HVQLVESGGGLVQAGGSLRLSCAASGSTFSRYAMGWYRQAPGKERELVAAISSSGGSTYYADSVKGRFTISRDNAKNTVYLQMNSLKPEDTAVYYCAARQYFFSSWRFDYWGQGTQVTVSS”, “high polyreactivity”; as for “QVQLVESGGGLVQAGGSLRLSCAASGFIFYRYAMGWYRQAPGKERELVASITRSGGSTYYADSVKGRFTISRDNAKNTVYLQMNCLKPEDTAVYYCAADRYLGTYRYRYDYWGQGTQVTVSS”, “high polyreactivity”. As for “QVQLVESWGGLFQAGGTLRLSCAASGRTFIGYDMEWYRQAPGKERELVATISWNGADTYYADSVKGRYTISRDNAKNTVYLKMNSLKPEDTEVYYCAAERENGDHYRYYYWGQGTQVTVSS”, the entry is “low polyreactivity”; as for “QVQLVESGGGLVQAGGSLRLSCAASGSTFKRYAMAWYREGPGKEMDLVASISRSGCSTYYADSVKGRFTISRDNAKNSVYLQMNSLIPEDTAVYYCASRGFSFSFSYPSYDYWGQGTQVTVSS”, “high polyreactivity”. As for “QVQLVESGGGLVQAGGSLRLSCAASGSTFSRYAMGWYRQAPGKERELVAAISTRGGSTRYADSVKGRFTISRDNAKNTVYLQMNSLKPEDTAVYYCAALGQGRTSATSFVDYEYWGQGTQVTVSS”, the entry is “high polyreactivity”; as for “QVQLVESGGGLVQAGGSLRLSCAASGITFGRNTMGWYRQPPGKERELVAAIDSGGNTYADSVKGRFTISRDNAKNTVYLQMNSLKPEDTAVYYCAVDGGEFSSYGYWVQGTQVTVSS”, “low polyreactivity”. As to “QVQLVESGGGLVQAGGSLRLSCSASGSTFYRYAMGWYRQAPGKERELVATITSGGSTHYADSVKGRFTISRDNAKNTVYLQMNSLKPEDTAVYYAATTSDWYTTINVVYRYYYWGQGTQVTVSS”, the “polyreactivity (PSR sort gate)” value is “high polyreactivity”. In the case of “QVQLVESGGGLVQAGGSLRLSCAASGLIFDSYAMGWDRQAPRKERELVAAITYTGGSTYYADSVKGRFTISRDNAKNSVYLQMNSLKPEDTAVYYCAARRQRERYGYWGQGTQVTVSS”, the “polyreactivity (PSR sort gate)” value is listed as “high polyreactivity”. As for “QVQLVESGGGLVQAGGSLRLSCAASGSTFPFNAMGWYRQAPGKERELVAGIRSRGGSTYYADSVKGRFTISRDNAKNTVYLQMNSLIPEDTAVSSCAKVYKDRDDLFYYWGQGTQVTVSS”, the entry is “low polyreactivity”.
